Experimental findings from the DeepSol protein solubility set are described below.

The series can be described thus: soluble on expression in E. coli; label from the status in PepcDB or PDB records.
Consider “MSKKIRNTEVDHLFDAILTLENKEECYTFFEDVCTVNELLSISQRYEVAKMLREGKTYLDISNATGASTATISRVNRSLNYGNDGYDMVLERVLKKDE”, for which the “soluble on expression in E. coli” value was “not soluble”. Consider “MGSDKIHHHHHHMTPRSGKTTAGHFRYARYLIESEDENHLVTAYNQEQAYRLFIDGDGTGLMHIFDGNCEIKHDERGDHLLITTPKGNKRVYYKGGGKVNSVGAITGMSLGSVVFCEINLLHMDFIQECFRRTWAAKLRYHLADLNPPAPQHPVIKDVFDVQNTRWTHWTMDDNPILTAERKQNIINSLKKNPYLYKRDVLGQRVMPQGVIYGLFDTEKNVLDALIGEPVEMYFCADGGQSDATSMSCNIVTRVRDNGRISFRLNRVAHYYHSGADTGQVKAMSTYALELKVFIDWCVKKYQMRYTEVFVDPACKSLREELHKLGVFTLGAPNNSKDVSSKAKGIEVGIERGQNIISDGAFYLVNHSEEEYDHYHFLKEIGLYSRDDNGKPIDKDNHAMDEFRYSVNVFVHRYYN”, for which the “soluble on expression in E. coli” value is recorded as “not soluble”.

“MKETEQVSEAPHGLEGAWLDLTNRVRVSGDTVEACSAFSIGPPRCRWLLQATDRGVNCAALDHYVPHICGTHTETVYHIAHHRYIKRAVCEIPFFRFHKARIQVCTAKIACTEQVLPSADTDYPCLEPNDLIVGPSALNRAPRYTRAQDSTIEALILIVVGPDGTSDWRDGKLDDRPPYLTPAAIESLATRYPNMRHLLTNLPSVDRRRDGGLVRSHRAFFATDFAGDGTPSESPQKTITELLRVPPDWQLYDDAEGVVCISLAPIEGLDAIPSSVYFKSH”: the “soluble on expression in E. coli” value was “not soluble”. In the case of “MSLGELLFNRSFENTKPVSESNSWYTCYRGDVKEAKWWHSGYEEPKWYLLADGRKEEKLPLIFNNYWPSAHGKYFLQIDNRKKQIPTLLVQERIYIEKGKGYTVSGLFSSGGYLSEEKYSKESVPVTIAIYKEGDFHTPLSKTELAVNTNQFILYSSSLDATEYEGWCTYTIEVPAGGCVGIDLLSLMADDVIKGWKRESVERIKNELRPRTMRMPGGCFTSLYDWRSGIGPREERPVSYDTWWGCELLNDVGTFELVDLCEAVGAEPFFCVPVMFNNEYSAADWVDFCNNPTNAQRIAYGRTKPLNVKYWELENEPYRRFDAVTYANRCVDFAKAMKAKDPSIKIAVGNYWLFNKKFKEMLEIVGPYVDLITNRGGTPEEMRADIVILDAYNKAHGTDIKLCHTEFRAPVTRNEGNTDGLNQKDTGGEETLFNASIRWGFAMNMVEQYIAYQNMGGSFFTANYTNLSDGWGECLINTPKEGTYLNAPGVAFALLNSLDIAYPQIIEQEKENQDIVIQAAWNKRRDKLTLVVLNFSQNTQPCKIDFSQIKKSFRVRKGMKIAPQSDLSFNTLQHPEEVKVEEGHHHHHH” it was “soluble”; in that of “MAHHHHHHMKNALFVNENMTILKIFYKDKLYMIKNKICGYQHDINENLVNNPHLLFLGRQEAWILILKCKEEAILQNCITATRYEEIRESEIERHDCVLGSLRK”, “not soluble”; in that of “MIDELATKANVALKAMEDFTQEQVDHIVHQMAMAALDQHMPLAKMAVEETGRGIYEDKAIKNMYASEYIWNNIKHDKTVGVINKDEQTGLMEIAEPVGVVCGVTPTTNPTSTTIFKSLIALKTRNPIVFAFHPSAQKCSAEAARIVRDAAIAAGAPENCIQWIEQPSIDATSALMNHPGIAIVLATGGAGMVKSAYSTGKPALGVGPGNVPAYIEKTAKVKRAVNDLIVSKSFDNGMICASE”, “not soluble”.

For the sequence “MGSDKIHHHHHHMKYGIVGYSGRMGQEIQKVFSEKGHELVLKVDVNGVEELDSPDVVIDFSSPEALPKTVDLCKKYRAGLVLGTTALKEEHLQMLRELSKEVPVVQAYNFSIGINVLKRFLSELVKVLEDWDVEIVETHHRFKKDAPSGTAILLESALGKSVPIHSLRVGGVPGDHVVVFGNIGETIEIKHRAISRTVFAIGALKAAEFLVGKDPGMYSFEEVIFGGE”, the “soluble on expression in E. coli” value is recorded as “soluble”.

Turning to “MGHHHHHHSHPKGVLPSHYYESFLEKKGPCDRDYKKFWAGLQGLTIYFYNSNRDFQHVEKLNLGAFEKLTDEIPWGSSRDPGTHFSLILRNQEIKFKVETLECREMWKGFILTVVELRVPTDLTLLPGHLYMMSEVLAK”, the “soluble on expression in E. coli” value is “not soluble”. In the case of “MSLFLITNRKLVNREKYFNTIEEAGKYGVKNIILREKDLSTKELIKIYIKIKELVTEETNIIINSNIEATMILKEKFIHLSFKDFKRNLEEVKSLQVGVSVHSILEAIEADRLGASYILVSPIFETQCKKGVTPKGINFIKEIKEKVNCNVIALGGINEHNFKEVLGAGADDFACMSLLFMSNNIKKSLYTFKSLEGHHHHHH” it was “not soluble”; in that of “MGHHHHHHSHNCHWTYLKQNRKMAANSSGQGFQNKNRVAILAELDKEKRKLLMQNQSSTNHPGARY”, “not soluble”. For the sequence “YPHHLGTSPRHPLNSGTEMAGGAWGRLACYLEFLKKEELKEFQLLLANKAHSRSSSGETPAQPEKTSGMEVASYLVAQYGEQRAWDLALHTWEQMGLRSLCAQAQEGAGHSPSFPYSPSEPHLGSPSQPTSTAVLMPWIHELPAGCTQGSERRVLRQLPDTSGRRWREISASLLYQALPSSPDHESPSQESPNAPTSTAVLGSWGSPPQPSLAPREQEAPGTQWPLDETSGIYYTEIREREREKSEKGRPPWAAVVGTPPQAHTSLQPHHHPWEPSVRESLCSTWPWKNEDFNQKFTQLLLLQRPHPRSQDPLVKRSWPDYVEENRGHLIEIRDLFGPGLDTQEPRIVILQGAAGIGKSTLARQVKEAWGRGQLYGDRFQHVFYFSCRELAQSKVVSLAELIGKDGTATPAPIRQILSRPERLLFILDGVDEPGWVLQEPSSELCLHWSQPQPADALLGSLLGKTILPEASFLITARTTALQNLIPSLEQARWVEVLGFSESSRKEYFYRYFTDERQAIRAFRLVKSNKELWALCLVPWVSWLACTCLMQQMKRKEKLTLTSKTTTTLCLHYLAQALQAQPLGPQLRDLCSLAAEGIWQKKTLFSPDDLRKHGLDGAIISTFLKMGILQEHPIPLSYSFIHLCFQEFFAAMSYVLEDEKGRGKHSNCIIDLEKTLEAYGIHGLFGASTTRFLLGLLSDEGEREMENIFHCRLSQGRNLMQWVPSLQLLLQPHSLESLHCLYETRNKTFLTQVMAHFEEMGMCVETDMELLVCTFCIKFSRHVKKLQLIEGRQHRSTWSPTMVVLFRWVPVTDAYWQILFSVLKVTRNLKELDLSGNSLSHSAVKSLCKTLRRPRCLLETLRLAGCGLTAEDCKDLAFGLRANQTLTELDLSFNVLTDAGAKHLCQRLRQPSCKLQRLQLVSCGLTSDCCQDLASVLSASPSLKELDLQQNNLDDVGVRLLCEGLRHPACKLIRLGLDQTTLSDEMRQELRALEQEKPQLLIFSRRKPSVMTPTEGLDTGEMSNSTSSLKRQRLGSERAASHVAQANLKLLDVSKIFPIAEIAEESSPEVVPVELLCVPSPASQGDLHTKPLGTDDDFWGPTGPVATEVVDKEKNLYRVHFPVAGSYRWPNTGLCFVMREAVTVEIEFCVWDQFLGEINPQHSWMVAGPLLDIKAEPGAVEAVHLPHFVALQGGHVDTSLFQMAHFKEEGMLLEKPARVELHHIVLENPSFSPLGVLLKMIHNALRFIPVTSVVLLYHRVHPEEVTFHLYLIPSDCSIRKELELCYRSPGEDQLFSEFYVGHLGSGIRLQVKDKKDETLVWEALVKPGDLMPATTLIPPARIAVPSPLDAPQLLHFVDQYREQLIARVTSVEVVLDKLHGQVLSQEQYERVLAENTRPSQMRKLFSLSQSWDRKCKDGLYQALKETHPHLIMELWEKGSKKGLLPLSS”, the “soluble on expression in E. coli” value is recorded as “soluble”. As to “MAHHHHHHMAKKHLKRLYAPKDWMLSKLTGVFAPRPRAGPHKLRECLSLLIIIRNRLKYALNALEAQMILRQGLVCVDGKPRKDGKYPAGFMDVVEIPKTGDRFRILYDVKGRFALVRVSEAESSIKMMKVVNVYTGTGRIPVAVTHDGHRIRYPDPRTSRGDTLVYDVKEKKVLDLIKIGNGKVVMVTGGANRGRIGEIVSIERHPGAFDIARLKDASGHEFATRATNIFVIGKDMSSVPVTLPKQQGLRINVIQEREEKLIAAETRRTTQAHSKRKTKV”, the “soluble on expression in E. coli” value was “not soluble”.

Regarding “MGSDKIHHHHHHMKRFLFSFLFGLVLLSGCDFEHEIIEILDMIVSEDQSTDVVAPPTSGEATITFFDVGQGDSTLIRSENYTVLVDTGRHDSDAIFTHLEKQQIDQIDLLILTHPHADHIGNADEIVRLYSPEEVWIDGNEATSKTFENVIDALLDSEAEVVEPRAGDVYERGDFLFEIVNPTKLTGDLNNDSIAFRLTYGDVRVVMTGDAEEAAEQEMVASGTDLEADIFKVAHHGSSTSNQPFFLDEIEPTVAIYSAGEDNSYGHPHREVTSLLNERGIDIFGTDIHGTVLITTDGHTYSIQTEH”, the “soluble on expression in E. coli” value is listed as “not soluble”. In the case of “MKMIIAIVQDQDSQELADQLVKNNFRATKLATTGGFLRAGNTTFLCGVNDDRVDEILSVINQTCGNREQLVSPITPMGGSADSYIPYPVEVEVGGATVFVMPVDAFHQF” it was “not soluble”. In the case of “MKSKLKLHGFNNLTKTLSFNIYDICYAETPQDQQAYVEYINSVYDAERLTRILTDVVDIIGANILNIARQDYDPQGASVTILISEQPVTPTESQIEESPGPLPETILAHLDKSHITVHTYPEIHPVDGIATFRVDIDVSTCGVISPLKALNYLIHKFESDIVTVDYRVRGFTRDVEGKKHFIDHEINSIQNYLSEDTRNGYQMTDVNVYQENLFHTKMLLKQFELDNYLFGDATSNLSAEQREQVTAKVKHEMLEIFYGRNVAV” it was “not soluble”; in that of “MGSDKIHHHHHHMTLPIDTPAVLVDLNVAEANVRAFQSYCDRHSLKMRPHIKTHKLPQLAEYQIAQGAIGITCQKITEAEAMVAGGDMRDILITYNILGAEKVARLRALSERVALSVVADNLTVVEGLSAGFAGANKPLPVLVECNTGADRCGVETPEAALALAQAIDAAPGLKFAGLMTYPPVGGAAKVTTWLAEAKARIEATDLTVEVISSGGSPDMWQAHEMPLATEYRVGTYVYNDRSLVTRGICTWDDCALTVLATVVSTPSATRAVIDAGSKVLTSDLLGLEGYGHVLGYPDFMIDQLSEEHGRITSAQPTGLRVGDQVRIVPNHACVVANMLDHITLMRAEEVAGQETVAARGQVW”, “not soluble”. As for “MNTPHPSAPVLVAVANPTIHPEALHIVAATGRECIDTTDPREISRHAHRVAAMLVDATTAPHMASLPPNTRVMYLEPEPGPIDYEKAMKSGAELAVIVPAQSPELLKALGRRDVAPRAGKYPVIAVIGAAGGAGTSTLCAALAADYREALLIDTEHFSGGIDLLLGKEDDPGIRWDDVPDSGEKVPASELLASLPCVDPNVRILAATRDSVTHVAEQQLRGVVESVRGTCPIIIDVQRHHVLFESCVDLADLVVLLVPAEIRSVAAAAQLVPWLRRRKVDVVGVLRERAWASVDREEVARVTGADIVATVPTVKGLPREVELGGMATIPRALRRPLAQLRSHIDG”, the entry is “not soluble”; as for “MSLSDPHHPHIQTHNAWVEFPIFDAKSRSLKKAVLGKAGGTIGRNNSNVVVIEALRDITMELNLGDRVGLVGHNGAGKSTLLRLLSGIYEPTRGWAKVTGRVAPVFDLGIGMDPEISGYENIIIRGLFLGQTRKQMQAKVDEIAEFTELGEYLSMPLRTYSTGMRVRLAMGVVTSIDPEILLLDEGIGAVDADFLRKAQSRLQNLVERSGILVFASHSNEFLARLCKTAIWIDHGVIRLAGGIEEVVRAYEGEDAARHVREVLAETEGHHHHHH”, “soluble”.
